“Also recorded” adds a separate entry of the source.

In this test the test system is female C57BL/6 mice. In words: In vivo mice fertility study with RANKL inducer PTH. The settings on record: vs vehicle. The source says: Twelve (12) female C57BL/6 mice will be allocated to two treatment groups (n=6, n=6) and administered with test article according to table 1. On study day 7, all females of each treatment group+3 male C57BL/6 mice will be allocated to the fertility study. In the fertility study pairs of 2 females will be housed with 1 male for a period of 5 days. During the 5 days all females are observed daily for vaginal plugs at least once per day. Administration of test articles will continue according to table 1 during the fertility study (days 7 to 11). Presence of vaginal plug, apparent pregnancy, and litter size will be recorded for each female. Females and litter will be terminated at the end of the fertility study and the weight of the pups will be determined.
Administration of test article i.p. (group 1) or vehicle i.p. (group 2) will be conducted 2 times a week for a period of 12 days. • Gr.1: 6 mice, i.p. dosing 2 times weekly for 12 days • Gr.2: 6 mice, i.p. dosing 2 times weekly for 12 days
One blood sample will be harvested on study day 12 from all female mice in the study. The blood samples will be drawn by sublingual vein puncture.
Termination: • female mice from the fertility study, will be terminated on nominal study day 12. Twelwe (12) mice will be euthanized after giving birth to litters

B1: PTH: Parathyroidea hormone; well-characterized RANKL inducer (protein, UniProt P01270 32-115, looked up)
Parathyroid hormone: SVSEIQLMHNLGKHLNSMERVEWLRKKLQDVHNFVALGAPLAPRDAGSQRPRKKEDNVLVESHEKSLGEADKADVNVLTKAKSQ
modifications: Parathyroid hormone
notes: Parathyroidea hormone; well-characterized RANKL inducer
As to B1, the pregnancy rate result (PTH 5 μg/kg i.p., females paired with WT males, FIG. 14A) is given as “increased; also recorded: doubled”. Where the note is “PTH 5 μg/kg i.p., females paired with WT males, FIG. 14B”, the number of pups result is on record as “increased”. Also, the “number of pups per female” value (PTH 5 μg/kg i.p., females paired with WT males, FIG. 14C) is listed as “increased”. Besides, for the setting “short-term PTH 5 μg/kg i.p., healthy female mice, p<0.05, data not shown”, the ovary weight result is on record as “small but significant effect”.
